B1: #84H1L2hIgG2 (antibody)
heavy: EVQLVESGGGLVQPGGSLRLSCAASGFTFSNYYMAWVRQAPGKGLEWVSTITTSGSRPYYADSVKGRFTISRDNSKNTLYLQMNSLRAEDTAVYYCARHIYYYDGYPFAYWGQGTLVTVSSASTKGPSVFPLAPCSRSTSESTAALGCLVKDYFPEPVTVSWNSGALTSGVHTFPAVLQSSGLYSLSSVVTVPSSNFGTQTYTCNVDHKPSNTKVDKTVERKCCVECPPCPAPPVAGPSVFLFPPKPKDTLMISRTPEVTCVVVDVSHEDPEVQFNWYVDGVEVHNAKTKPREEQFNSTFRVVSVLTVVHQDWLNGKEYKCKVSNKGLPAPIEKTISKTKGQPREPQVYTLPPSREEMTKNQVSLTCLVKGFYPSDIAVEWESNGQPENNYKTTPPMLDSDGSFFLYSKLTVDKSRWQQGNVFSCSVMHEALHNHYTQKSLSLSPGK
light: DVQMTQSPSSLSASVGDRVTITCKASKSISNNLAWYQQKPGKANKLLIHSGSTLQSGTPSRFSGSGSGTDFTLTISSLQPEDFATYYCQQYNEYPLTFGQGTKVEIKRTVAAPSVFIFPPSDEQLKSGTASVVCLLNNFYPREAKVQWKVDNALQSGNSQESVTEQDSKDSTYSLSSTLTLSKADYEKHKVYACEVTHQGLSSPVTKSFNRGEC
B2: #101H1L2hIgG2 (antibody)
heavy: EVQLVESGGGLVQPGRSLRLSCAASGFTFSDYYMAWVRQAPGKGLEWVATISYDGSNTYYRDSVKGRFTISRDNSKSTLYLQMNSLRAGDTAVYYCARFYNNYYFDYWGQGTLVTVSSASTKGPSVFPLAPCSRSTSESTAALGCLVKDYFPEPVTVSWNSGALTSGVHTFPAVLQSSGLYSLSSVVTVPSSNFGTQTYTCNVDHKPSNTKVDKTVERKCCVECPPCPAPPVAGPSVFLFPPKPKDTLMISRTPEVTCVVVDVSHEDPEVQFNWYVDGVEVHNAKTKPREEQFNSTFRVVSVLTVVHQDWLNGKEYKCKVSNKGLPAPIEKTISKTKGQPREPQVYTLPPSREEMTKNQVSLTCLVKGFYPSDIAVEWESNGQPENNYKTTPPMLDSDGSFFLYSKLTVDKSRWQQGNVFSCSVMHEALHNHYTQKSLSLSPGK
light: DIQMTQSPSSLSASVGDRVTINCKASQNLYKNLAWYQQKPGKAPKLLIDNANSLQTGIPSRFSGSGSGTDFTLTISSLQPEDFATYFCQQYYSGSYTFGQGTKVEIKRTVAAPSVFIFPPSDEQLKSGTASVVCLLNNFYPREAKVQWKVDNALQSGNSQESVTEQDSKDSTYSLSSTLTLSKADYEKHKVYACEVTHQGLSSPVTKSFNRGEC
B3: #131H2L2hIgG2 (antibody)
heavy: QVQLVESGGGVVQPGRSLRLSCAASGFTFNNYWMTWVRQAPGKGLEWVASITKAGGSTYYADSVKGRFTISRDNSKSTLYLQMNSLRAEGTAVYYCTRELGEFYVMDAWGQGTTVTVSSASTKGPSVFPLAPCSRSTSESTAALGCLVKDYFPEPVTVSWNSGALTSGVHTFPAVLQSSGLYSLSSVVTVPSSNFGTQTYTCNVDHKPSNTKVDKTVERKCCVECPPCPAPPVAGPSVFLFPPKPKDTLMISRTPEVTCVVVDVSHEDPEVQFNWYVDGVEVHNAKTKPREEQFNSTFRVVSVLTVVHQDWLNGKEYKCKVSNKGLPAPIEKTISKTKGQPREPQVYTLPPSREEMTKNQVSLTCLVKGFYPSDIAVEWESNGQPENNYKTTPPMLDSDGSFFLYSKLTVDKSRWQQGNVFSCSVMHEALHNHYTQKSLSLSPGK
light: DVQMTQSPSSLSASVGDRVTITCKASKSINTYLAWYQEKPGKTNKLLIYSGSTLQSGTPSRFSGSGSGTDFTLTISSLQPEDFATYYCQQHNEYPFTFGQGTKLEIKRTVAAPSVFIFPPSDEQLKSGTASVVCLLNNFYPREAKVQWKVDNALQSGNSQESVTEQDSKDSTYSLSSTLTLSKADYEKHKVYACEVTHQGLSSPVTKSFNRGEC

Target: human CD147 endogenously expressed on human cancer cell lines (human), P35613
Assay: cell-based or functional assay

Ratio of the phosphorylated p38MAPK signal to the detected p38MAPK signal, HepG2 cells, 10 ug/ml, 15 minutes (fold of the human IgG treated group), > 2:
B1
B2
B3

— patent US20200362033A1
